B1: Human wild-type adenosine deaminase (ADA) [human] / A2AR-Nluc-spacer (human adenosine receptor fused to NanoLuc on the N-terminal end, with spacer) [human] (parent)
chain 1: MAQTPAFDKPKVELHVHLDGSIKPETILYYGRRRGIALPANTAEGLLNVIGMDKPLTLPDFLAKFDYYMPAIAGCREAIKRIAYEFVEMKAKEGVVYVEVRYSPHLLANSKVEPIPWNQAEGDLTPDEVVALVGQGLQEGERDFGVKARSILCCMRHQPNWSPKVVELCKKYQQQTVVAIDLAGDETIPGSSLLPGHVQAYQEAVKSGIHRTVHAGEVGSAEVVKEAVDILKTERLGHGYHTLEDQALYNRLRQENMHFEICPWSSYLTGAWKPDTEHAVIRLKNDQANYSLNTDDPLIFKSTLDTDYQMTKRDMGFTEEEFKRLNINAAKSSFLPEDEKRELLDLLYKAYGMPPSASAGQNL
chain 2: MPIMGSSVYITVELAIAVLAILGNVLVCWAVWLNSNLQNVTNYFVVSLAAADIAVGVLAIPFAITISTGFCAACHGCLFIACFVLVLTQSSIFSLLAIAIDRYIAIRIPLRYNGLVTGTRAKGIIAICWVLSFAIGLTPMLGWNNCGQPKEGKNHSQGCGEGQVACLFEDVVPMNYMVYFNFFACVLVPLLLMLGVYLRIFLAARRQLKQMESQPLPGERARSTLQKEVHAAKSLAIIVGLFALCWLPLHIINCFTFFCPDCSHAPLWLMYLAIVLSHTNSVVNPFIYAYRIREFRQTFRKIIRSHVLRQQEPFKAAGTSARVLAAHGSDGEQVSLRLNGHPPGVWANGSAPHPERRPNGYALGLVSGGSAQESQGNTGLPDVELLSHELKGVCPEPPGLDDPLAQDGAGVS

Variants of: B1
Test: NanoBRET between mixed cells (A2AR-Nluc-spacer cells + CD26-YFP cells bridged by ADA)
Details: ADA at 1 μg/ml, 10 min incubation in HBSS without shaking, HEK-293T cells, untreated (0) control est. 4.6 mBU, parent: 35, read off a plot

response [mBU] | Variant
7.3 | chain 1 L58A
6.7 | chain 1 L62A

Reference: article PMC5818423
